US20240279345A1, “ALPHA 5 BETA 1 INTEGRIN BINDING AGENTS AND USES THEREOF” (PASITHEA THERAPEUTICS CORP., priority 2021, published 2024)

Columns and labels:
[1] = target: T1, recombinant human α5β1 integrin (rh-α5β1) (Homo sapiens, UniProt P05556+P08648); test: Plate-based ELISA reactivity to rh-α5β1; assay type: binding; conditions: selected for further characterization among α5 specific hybridomas (28 selected)
T1 construct: purchased R&D Systems 3230-A5
Method: The 249 positive hybridoma supernatants selected as described in Example 1 were screened for reactivity to rh-α5β1 in a plate-based ELISA. Immulon4 HBX ELISA 96-well plates (Thermo Fisher Scientific, Waltham, MA, cat. no. 3855) were coated with rh-α5β1 (R&D Systems, Minneapolis, MN 55413, cat. no. 3230-A5), at 1 μg/mL in PBS supplemented with 0.5 mM MgCl2, MnCl2 and CaCl2 and incubated overnight at 4° C. Plates were washed 3 times with Wash Buffer (1× Tris Buffered Saline containing 0.05% Tween20), blocked with 2% BSA in 1×TBS (made from 10× Thermo Scientific Blocker BSA (10×) in TBS; Thermo Fisher Scientific, Waltham, MA, cat. no. 37520) for 2 hours at room temperature (RT) then incubated with hybridoma supernatants diluted 1:10 with Standard Diluent (2% BSA, 1×TBS, 0.05% Tween20). Following a 1 hour incubation at RT, wells were washed 3 times, incubated with biotinylated goat anti-mouse secondary antibody at 1:8000 dilution (Invitrogen, Carlsbad, CA, cat. no. 62-6540) for 1 hour, washed 3 times, then incubated for 30 minutes with poly-HRP Streptavidin (Thermo Fisher Scientific, Waltham, MA, cat. no. N200), washed 4 times, incubated with TMB (Thermo Fisher Scientific, Waltham, MA, cat. no. N301) for 5-10 minutes, followed by addition of ELISA Stop Solution (Invitrogen, Carlsbad, CA, cat. no. SS04). Absorbance 450 nm was measured.

rh-α5β1 = rh-α5β1 (Homo sapiens, UniProt P05556+P08648); test: Competition binding studies by Biolayer Interferometry (epitope groups); conditions: for Response (nm) / % Response: secondary mAb pre-mixed with 20 nM rh-α5β1; for % Response: relative to antigen alone; for epitope group: two epitope groups among 6 antibodies
Method: Epitope analysis via competition binding studies was performed using Biolayer Interferometry (BLI) on the 6 antibodies selected as described in Example 5. The anti-α5β1 FN blocking antibodies A2-7A05, C-14D12 and A-15B08 were immobilized on sensors and incubated with each of the other antibodies that had been preincubated with rh-α5β1, to determine whether this antibody-antigen association prevents or allows binding to the antibody on the sensor. The magnitude of observed binding (response) was compared to binding of antigen alone under the same conditions. If the overall response was greater than 120% of antigen binding alone, then the antibodies can pair with each other. If response was less than 80% of response of antigen binding alone, then the antibodies block each other. The protocol was as follows: preincubate the panel of antibodies with antigen (1 hr). Equilibrate the sensor (30 seconds (s))-->Load lead Ab on the sensor (700s)--->Quench (480s)--->Read baseline (480s)-->measure preincubated Ab+Ag association with loaded sensor (600s).

[2] = target: T2, purified recombinant human α5β1 integrin heterodimer, 6×His tagged (rh-α5β1); Acro Biosystems, cat. no. … (human, UniProt P08648 42-995; P05556 21-728); test: BLI (Octet), supernatant mAb on anti-mouse IgG Fc sensor, 20 nM rh-α5β1
T2 construct: bought recombinant heterodimer; also called rh-α5β1-6×His tagged protein; His-tagged-α5β1
Text: Anti-Mouse IgG Fc biosensors were used to load each clone supernatant. Assay steps were as follows: Sensor Check (30s)-->Load Ab (700s)-->Quench (480s)-->Baseline(480s)-->Ab Assoc. (600s)-->Dissoc. (600s).

[3] = target: T2, purified recombinant human α5β1 …; test: ELISA, inhibition of rh-α5β1-His binding to coated FN, purified hybridoma mAb
Method: Immulon4 HBX ELISA 96-well plates were coated with FN by incubation overnight at 4° C. with 2.5 μg/mL human FN (R&D Systems, Minneapolis, MN 55413, cat. no. 1918-FN) in 1×PBS (0.01M phosphate buffer and 0.154M NaCl, pH 7.4). Plates were then washed 3 times with Wash Buffer (1× Tris Buffered Saline containing 0.05% Tween20), blocked with 2% BSA in 1×TBS for 2 hours at room temperature (RT). […] Isotype control antibody (Control Ab; Ms IgG2a EMD Millipore Corp, Billerica, MA, cat. no. PP102) was used to normalize data across different assay runs. […] Following 1 hour at RT, the wells were washed 3 times, incubated with biotinylated Anti-6×His-Tag Ab (Invitrogen, Carlsbad, CA, cat. no. MAI-21315-BTIN) at 1:1000 in Standard Diluent for 1 hour, washed 3 times, incubated for 30 minutes with poly-HRP Streptavidin (Thermo Fisher Scientific, Waltham, MA, cat. no. N200), washed 4 times, incubated with TMB substrate (Thermo Fisher Scientific, Waltham, MA, cat. no. N301) for 2-5 minutes, followed by addition of ELISA Stop Solution (Invitrogen, Carlsbad, CA, cat. no. SS04). Absorbance 450 nm was measured. Data points were normalized to the isotype Control Ab values at each concentration and reported as % Absorbance 450 nm normalized to Control Ab. Non-linear regression analysis was used to fit curves (4-parameter) to the data using GraphPad Prism version 9.0.2 (GraphPad Software, LLC, San Diego, CA).

[4] = target: T3, recombinant human α5β1 integrin (rh-α5β1; R&D Systems, cat. no. 3230-A5) (human, UniProt P08648 42-995; P05556 21-728); test: ELISA, coated rh-α5β1, supernatant 1:10
T3 construct: bought recombinant heterodimer
Method: Plates were washed 3 times with Wash Buffer (1× Tris Buffered Saline containing 0.05% Tween20), blocked with 2% BSA in 1×TBS (made from 10× Thermo Scientific Blocker BSA (10×) in TBS; Thermo Fisher Scientific, Waltham, MA, cat. no. 37520) for 2 hours at room temperature (RT) then incubated with hybridoma supernatants diluted 1:10 with Standard Diluent (2% BSA, 1×TBS, 0.05% Tween20). […] Absorbance 450 nm was measured.

T3 sequence (P08648 42-995 limits assumed, form in doubt, chain 1 of 2): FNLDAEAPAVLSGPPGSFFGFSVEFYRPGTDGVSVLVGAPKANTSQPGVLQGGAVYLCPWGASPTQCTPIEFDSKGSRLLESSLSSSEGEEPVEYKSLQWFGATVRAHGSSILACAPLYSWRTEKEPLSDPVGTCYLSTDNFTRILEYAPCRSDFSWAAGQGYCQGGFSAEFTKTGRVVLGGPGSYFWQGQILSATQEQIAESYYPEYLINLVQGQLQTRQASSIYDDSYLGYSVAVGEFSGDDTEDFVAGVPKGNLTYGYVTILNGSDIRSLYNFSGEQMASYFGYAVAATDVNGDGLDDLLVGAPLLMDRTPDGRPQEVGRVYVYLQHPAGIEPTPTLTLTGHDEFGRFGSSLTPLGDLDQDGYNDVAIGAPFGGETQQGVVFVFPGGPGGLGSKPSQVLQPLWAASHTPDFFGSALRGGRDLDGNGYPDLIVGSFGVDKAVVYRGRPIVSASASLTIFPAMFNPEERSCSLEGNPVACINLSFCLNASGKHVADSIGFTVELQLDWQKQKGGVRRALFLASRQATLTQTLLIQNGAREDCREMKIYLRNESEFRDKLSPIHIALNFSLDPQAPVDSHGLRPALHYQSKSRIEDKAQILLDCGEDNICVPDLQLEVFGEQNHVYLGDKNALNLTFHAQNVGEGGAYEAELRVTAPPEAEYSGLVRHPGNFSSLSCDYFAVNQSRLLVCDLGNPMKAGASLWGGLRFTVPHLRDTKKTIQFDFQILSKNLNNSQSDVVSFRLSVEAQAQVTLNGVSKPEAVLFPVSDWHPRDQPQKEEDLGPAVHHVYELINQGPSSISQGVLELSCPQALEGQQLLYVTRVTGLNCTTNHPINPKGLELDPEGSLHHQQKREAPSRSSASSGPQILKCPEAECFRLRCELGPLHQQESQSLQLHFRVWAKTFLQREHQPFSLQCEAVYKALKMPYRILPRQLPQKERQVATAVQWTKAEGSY
T3 sequence (P05556 21-728 limits assumed, form in doubt, chain 2 of 2): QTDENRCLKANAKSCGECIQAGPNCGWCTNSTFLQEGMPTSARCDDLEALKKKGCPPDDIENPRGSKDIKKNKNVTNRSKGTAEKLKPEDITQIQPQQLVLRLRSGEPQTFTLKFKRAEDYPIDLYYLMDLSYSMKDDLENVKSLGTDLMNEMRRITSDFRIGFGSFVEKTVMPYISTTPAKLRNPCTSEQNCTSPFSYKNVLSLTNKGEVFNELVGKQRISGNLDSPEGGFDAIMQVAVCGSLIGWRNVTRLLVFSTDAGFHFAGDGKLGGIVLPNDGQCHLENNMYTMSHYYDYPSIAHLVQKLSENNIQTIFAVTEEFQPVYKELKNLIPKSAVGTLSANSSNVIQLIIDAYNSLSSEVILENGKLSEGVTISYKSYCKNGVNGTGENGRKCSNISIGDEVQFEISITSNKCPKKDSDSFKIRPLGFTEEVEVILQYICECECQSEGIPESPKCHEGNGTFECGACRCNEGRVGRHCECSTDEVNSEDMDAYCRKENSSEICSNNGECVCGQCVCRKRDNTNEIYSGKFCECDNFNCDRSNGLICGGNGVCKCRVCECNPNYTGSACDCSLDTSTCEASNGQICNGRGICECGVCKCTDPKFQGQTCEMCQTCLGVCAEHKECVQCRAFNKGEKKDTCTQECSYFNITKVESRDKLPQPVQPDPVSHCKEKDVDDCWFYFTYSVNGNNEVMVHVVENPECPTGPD
T2 sequence (P08648 42-995 limits assumed, form in doubt, chain 1 of 2): as the sequence (P08648 42-995 limits assumed, form in doubt, chain 1 of 2) above
T2 sequence (P05556 21-728 limits assumed, form in doubt, chain 2 of 2): as the sequence (P05556 21-728 limits assumed, form in doubt, chain 2 of 2) above
Chain of rh-α5β1 (P08648 42-894 limits assumed): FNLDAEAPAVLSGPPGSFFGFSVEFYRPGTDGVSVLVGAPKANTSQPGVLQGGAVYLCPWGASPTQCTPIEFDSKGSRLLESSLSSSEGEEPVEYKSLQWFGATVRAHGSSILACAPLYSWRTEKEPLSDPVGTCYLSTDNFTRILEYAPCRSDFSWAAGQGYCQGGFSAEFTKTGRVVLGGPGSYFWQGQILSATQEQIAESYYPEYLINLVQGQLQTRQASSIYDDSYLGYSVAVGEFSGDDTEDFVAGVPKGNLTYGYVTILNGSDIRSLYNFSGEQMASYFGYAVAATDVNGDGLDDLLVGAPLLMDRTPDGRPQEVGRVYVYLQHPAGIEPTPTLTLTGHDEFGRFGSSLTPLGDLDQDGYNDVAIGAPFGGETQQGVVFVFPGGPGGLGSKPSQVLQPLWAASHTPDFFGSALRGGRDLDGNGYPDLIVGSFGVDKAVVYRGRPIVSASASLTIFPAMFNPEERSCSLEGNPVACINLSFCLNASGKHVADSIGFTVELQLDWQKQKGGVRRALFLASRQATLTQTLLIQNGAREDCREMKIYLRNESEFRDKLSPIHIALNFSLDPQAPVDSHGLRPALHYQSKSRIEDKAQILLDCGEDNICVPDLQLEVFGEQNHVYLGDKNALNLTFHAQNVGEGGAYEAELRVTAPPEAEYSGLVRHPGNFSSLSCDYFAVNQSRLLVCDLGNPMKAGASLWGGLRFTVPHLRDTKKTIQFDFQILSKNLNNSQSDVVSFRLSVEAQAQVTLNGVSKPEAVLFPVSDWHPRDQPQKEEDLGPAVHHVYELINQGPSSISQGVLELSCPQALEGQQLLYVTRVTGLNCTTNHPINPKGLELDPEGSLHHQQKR
Chain of rh-α5β1 (P08648 895-995 limits assumed): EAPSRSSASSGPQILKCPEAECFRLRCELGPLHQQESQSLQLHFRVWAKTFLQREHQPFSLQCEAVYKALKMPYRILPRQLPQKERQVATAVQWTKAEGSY
Chain of rh-α5β1 (P05556 21-728 limits assumed): as the sequence (P05556 21-728 limits assumed, form in doubt, chain 2 of 2) above
T1 sequence (P08648 42-894 limits assumed): as the sequence (P08648 42-894 limits assumed) above
T1 sequence (P08648 895-995 limits assumed): as the sequence (P08648 895-995 limits assumed) above
T1 sequence (P05556 21-728 limits assumed): as the sequence (P05556 21-728 limits assumed, form in doubt, chain 2 of 2) above

Molecule | Kd [2] | koff [2] | kon [2] | % Max Inhibition [3] | Absorbance 450 nm [4] | further results
A2-7F01: anti-α5β1 antibody, VH SEQ ID NO:91, VL SEQ ID NO:92 (antibody, V domains shown, A2-7F01 VH Sequence; A2-7F01 VL Sequence) VH: QVQLQQPGAELVKPGASVKLSCKASGYTFTIYWINWVKQRPGQGLEWIGNIYPGSSSTNYNEKFKTKATLTVDTSSSTAYMQLSSLTSDDSAVYYCAITGTGGFAYWGQGTLVTVSA VL: ENVLTQSPAIMSASLGEKVTMSCRASSSVNYMYWYQQKSDASPKLWIYFTSSLAPGVPTRFSGSGSGNSFSLTISSMEGEDAATYYCQQLTGSPFTFGSGTRLEIK |  |  |  |  |  | Selected Human α5 Specific [1]: Yes; binding of rh-α5β1 complexed with antibody to A-15B08 on the sensor (rh-α5β1; antibody preincubated with rh-α5β1, A-15B08 immobilized on sensor): able to bind; binding of rh-α5β1 complexed with antibody to C-14D12 on the sensor (rh-α5β1; antibody preincubated with rh-α5β1, C-14D12 immobilized on sensor): able to bind; Response (nm) (rh-α5β1; immobilized mAb A2-7A05): −0.17 nm; % Response (rh-α5β1; immobilized mAb A2-7A05): −472.70%; Response (nm) (rh-α5β1; immobilized mAb A-15B08): 0.29 nm; % Response (rh-α5β1; immobilized mAb A-15B08): 142.59%; Response (nm) (rh-α5β1; immobilized mAb C-14D12): 0.30 nm; % Response (rh-α5β1; immobilized mAb C-14D12): 133.09%; epitope group (rh-α5β1): one group
A-15B08 (antibody, V domains shown, mouse hybridoma antibody; also called A-15B08 (hybridoma)) VH: QVQLKESGPGLVAPSQSLSITCTISGFSLTSYGVHWVRQPPGKGLEWLVVIWSDGSTTYNSTLKSRLSISKDNSKSQVFFKMNSLQTDDTAMYYCARHYDYDGDWFAYWGQGTLVTVSA VL: QIVLTQSPAIMSASLGERVTMTCTASSRVSSNSLHWYQQKPGSSPKLWIYSTSNLASGVPARFSGSGSGTSYSLTISSMEAEDAATYYCHQYLRSPPTFGGGTKLEIK | 1.31 nM | 0.000431 s⁻¹ | 328000 M⁻¹ s⁻¹ | 96% |  | 
A2-9A11 (antibody, V domains shown, mouse hybridoma antibody) VH: QVQLKESGPGLVAPSQSLSITCTISGFSLTTYGVHWVRQPPGKGLEWLVVIWSDGSTTYNSALKSRLNITKDNSKSQVFLKMNSLQTDDTAMYYCVRHGGLLRRDAMDYWGQGTSVTVSS VL: QIVLTQSPAIMSASLGERVTMTCTASSSVSSNSFHWYQQKPGSSPKLWLYSTSNLASGVPARFSGSGSGTSYSLTISSMEAEDAATYYCHQYLRSPPTFGGGTKLEIK | 5.02 nM | 0.00139 s⁻¹ | 277000 M⁻¹ s⁻¹ |  | 1.91 | 
A2-6C10 (antibody, V domains shown, mouse hybridoma antibody) VH: QVQLKESGPGLVAPSQSLSITCTISGFSLTTYGVHWVRQPPGKGLEWLVVIWSDGSTTYNSALKSRLNITKDNSKSQVFLKMNSLQTDDTAMYYCVRHGGLLRRDAMDYWGQGTSVTVSS VL: QIVLTQSPAIMSASLGERVTMTCTASSSVSSNSFHWYQQKPGSSPKLWLYSTSNLASGVPARFSGSGSGTSYSLTISSMEAEDAATYYCHQYLRSPPTFGGGTKLEIK | 3.5 nM | 0.000911 s⁻¹ | 260000 M⁻¹ s⁻¹ |  | 2.01 | 
A2-8H11 (antibody, V domains shown, mouse hybridoma antibody) VH: QVQLKESGPGLVAPSQSLSITCTISGFSLTTYGVHWVRQPPGKGLEWLVVIWSDGSTTYNSALKSRLNITKDNSKSQVFLKMNSLQTDDTAMYYCVRHGGLLRRDAMDYWGQGTSVTVSS VL: QIVLTQSPAIMSASLGERVTMTCTASSSVSSNSFHWYQQKPGSSPKLWLYSTSNLASGVPARFSGSGSGTSYSLTISSMEAEDAATYYCHQYLRSPPTFGGGTKLEIK | 4.81 nM | 0.00139 s⁻¹ | 289000 M⁻¹ s⁻¹ |  | 1.45 | 
A2-5D10: anti-α5β1 antibody, VH SEQ ID NO:51, VL SEQ ID NO:52 (antibody, V domains shown, A2-5D10 VH Sequence; A2-5D10 VL Sequence) VH: QVQLKESGPGLVAPSQSLSITCTISGFSLTSYGVHWVRQPPGKGLEWLVVIWSDGSTTYNSTLKSRLSISKDNSKSQVFLKMNSLQTDDTAMYYCARHYDYDGDWFAYWGQGTLVTVSA VL: QILLTQSPAIMSASLGERVTMTCTASSSVSSRCLHWYQQKPGSSPKLWIYSTSNLASGVPARFRGSGSGTSYSLTISSMEAEDAATYYCHQYYRSPPTFGGGTKLEIK |  |  |  |  |  | Selected Human α5 Specific [1]: Yes; binding of rh-α5β1 complexed with antibody to A2-7A05 on the sensor (rh-α5β1; antibody preincubated with rh-α5β1, A2-7A05 immobilized on sensor): able to bind; Response (nm) (rh-α5β1; immobilized mAb A2-7A05): 0.17 nm; % Response (rh-α5β1; immobilized mAb A2-7A05): 448.38%; Response (nm) (rh-α5β1; immobilized mAb A-15B08): 0.22 nm; % Response (rh-α5β1; immobilized mAb A-15B08): 106.82%; Response (nm) (rh-α5β1; immobilized mAb C-14D12): 0.24 nm; % Response (rh-α5β1; immobilized mAb C-14D12): 106.12%; epitope group (rh-α5β1): second group
A2-3B06 (antibody, V domains shown, mouse hybridoma antibody) VH: QVQLKESGPGLVAPSQSLSITCTISGFSLTTYGVHWVRQPPGKGLEWLVVIWSDGSTTYNSALKSRLNITKDNSKSQVFLKMNSLQTDDTAMYYCVRHGGLLRRDAMDYWGQGTSVTVSS VL: QIVLTQSPAIMSASLGERVTMTCTASSSVSSNSFHWYQQKPGSSPKLWLYSTSNLASGVPARFSGSGSGTSYSLTISSMEAEDAATYYCHQYLRSPPTFGGGTKLEIK | 4.74 nM | 0.00137 s⁻¹ | 289000 M⁻¹ s⁻¹ | 93% | 2.03 | 
C-14D12 (antibody, V domains shown, mouse hybridoma antibody; also called C-14D12 (hybridoma)) VH: QVQLKESGPDLVAPSQSLSITCTVSGFSLTDYGVHWVRQPPGKGLEWLVVIWSDGSTTYNSALKSRLSITKDTSKRQVFLKMNSLQTDDTAMYYCARHAPSFIRYGSRYDALDYWGQGTSVTVSS VL: QIVLTQSPAIMSASLGERVTLTCTASSSVTSSFLHWYQQKPGSSPKLWIYSTSNLASGVPARFSGSGSGTSYSLTISSMEAEDAATYYCHQYHRSPPTFGGGTKLEIK | 0.379 nM | 9.94e-05 s⁻¹ | 263000 M⁻¹ s⁻¹ | 96% |  | 
